From US20250388666A1 (BRIGHAM AND WOMEN S HOSPITAL, published 2025)
Residue numbers refer to the chain shown, from its start. In names and notes the source's numbering stands.

Key:
[1] = biological target: T1, CEACAM1 (Sino Biological) (human, UniProt P13688 35-428, limits assumed); assay: single-point competition ELISA: crude periplasmic scFv extract mixed 1:1 with VH2 N56Q/Vk4 S27(f)A IgG (0.246 µg/mL) on plate-coated CEACAM1 (0.0625 µg/mL); remaining IgG detected with anti-human-HRP, absorbance 450 nm
T1 construct: may be the same as CEACAM1-HIS; also called hCEACAM1; biotinylated soluble CEACAM1
T1 sequence: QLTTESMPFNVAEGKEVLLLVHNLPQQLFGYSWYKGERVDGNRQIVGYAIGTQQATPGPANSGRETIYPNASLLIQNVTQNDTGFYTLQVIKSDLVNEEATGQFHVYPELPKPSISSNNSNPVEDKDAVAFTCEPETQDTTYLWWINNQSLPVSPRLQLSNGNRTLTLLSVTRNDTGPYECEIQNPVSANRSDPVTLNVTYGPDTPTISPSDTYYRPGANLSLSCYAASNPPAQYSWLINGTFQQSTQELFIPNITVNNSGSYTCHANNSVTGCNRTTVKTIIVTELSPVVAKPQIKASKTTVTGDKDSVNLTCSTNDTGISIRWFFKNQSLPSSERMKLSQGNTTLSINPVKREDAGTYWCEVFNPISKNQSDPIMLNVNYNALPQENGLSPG
Protocol: Nunc Immuno MaxiSorp 96 well flat bottom microtitre plates were coated with CEACAM1 at 0.0625 μg/ml overnight. Plates were subsequently washed and blocked for 1 hour at room temperature with 3% BSA/PBS. Periplasmic extracts were diluted 1:1 with VH2 N56Q/Vk4 S27(f)A IgG (parental RSB02 IgG) at 0.246 μg/mL in 6% BSA/PBS. The diluted periplasmic extract was then added to the blocked plate (100 μL per well) and the samples incubated on the plate for 1 hour at room temperature. Plates were subsequently washed and the binding of VH2 N56Q/Vk4 S27(f)A IgG was detected with an anti-human-HRP antibody (Sigma, Gillingham, UK) and TMB substrate (Invitrogen). The reaction was stopped with 1 M HCl, absorbance read at 450 nm on a Dynex Technologies MRX TC II plate reader and the binding data plotted.
Improved clones were identified on the basis of activity in the competition ELISA relative to the parental RSB02 scFv assayed on the same plate. Greater than 7300 peripreps were analyzed in total from all three libraries. Positive hits were picked into ‘cherry’ plates, re-tested within the competition ELISA to confirm results and sequenced. Dominant single sequence clones were identified in both the VH B1 (˜41% of clones sequenced after round 3 were a single dominant clone) and VL libraries (˜20% of clones were single dominant clones from those sequenced from round 3 and 4).

[2] = biological target: T2, CEACAM1-HIS (Sino Biologics Inc.) (Homo sapiens (Human), UniProt P13688 35-428); assay: SPR single-cycle, IgG on Protein A
T2 construct: bought; not shown: His tag
T2 sequence: T1 sequence
Protocol: As an alternative approach to assess the binding of the antibody combinations and the control antibodies to CEACAM1, a kinetic analysis was performed on a Biacore T200 running Biacore T200 Evaluation Software V2.0.1. All experiments were run at 25° C. with HBS-P+ running buffer (pH 7.4).
In order to assess the binding of all Composite Human Antibody™ variants, single cycle kinetic analysis was performed on the supernatants of all the transiently transfected HEK EBNA cells. Purified chimeric antibody and purified chimeric antibody spiked into HEK EBNA media were used as positive controls. Supernatants were diluted in HBS-P+ to a concentration of 1 μg/mL (as determined by an IgG quantitation ELISA). At the start of each cycle, antibodies were loaded onto Fc2, Fc3 and Fc4 of a Protein A chip and captured at a flow rate of 8 μL/min to give an RU of ˜100. The surface was then allowed to stabilize. Single cycle kinetic data was obtained at a flow rate of […] to minimize any potential mass transfer effects. Multiple repeats of the chimeric antibody were performed to check the stability of the surface and analyte over the kinetic cycles. The signal from the reference channel Fc1 (no antibody) was subtracted from that of Fc2, Fc3 and Fc4 to correct for differences in non-specific binding to a reference surface. A 5 point 2-fold dilution range from 3.125 to 50 nM CEACAM1 without regeneration between each concentration was used. The association phase for the 5 injections of increasing concentrations of CEACAM1 was monitored for 150 seconds and a single dissociation phase was measured for 150 seconds following the last injection of CEACAM1. Regeneration of the Protein A was conducted using 2 injections of 10 mM glycine-HCL pH 1.5 followed by a stabilization period of 500 seconds.
In the raw sensorgrams for the single cycle kinetics, the signal from each antibody blank run (no CEACAM1) was subtracted to correct for differences in surface stability.

[3] = biological target: T3, human GST-CEACAM1 (human, UniProt P13688 35-141, limits assumed); assay: competition ELISA vs murine parent antibody
T3 construct: printed both as GST-CEACAM1 and CEACAM1-GST; also called human CEACAM1-GST protein; hCEACAM1-GST; not shown: GST tag
T3 sequence: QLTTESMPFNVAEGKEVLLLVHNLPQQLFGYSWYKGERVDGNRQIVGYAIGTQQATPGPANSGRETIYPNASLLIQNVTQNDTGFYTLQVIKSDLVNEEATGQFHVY
Protocol: The binding of the purified chimeric antibody to human CEACAM1 was assessed in a competition ELISA assay. Nunc Immuno MaxiSorp 96 well flat bottom microtitre plates were pre-coated with 1 μg/ml human GST-CEACAM1 in 1×PBS, overnight at 4° C. The following day the plates were blocked for 1 hour at room temperature with 2% BSA/PBS before washing 2× with PBS/0.05% Tween 20 pH 7.4.
The binding of the purified antibodies to human CEACAM1 were assessed in a competition ELISA assay as described above. The ability of each variant to compete against the murine parental antibody for binding to the GST-CEACAM1 was compared to that of the chimeric antibody (VH0/Vκ0), which was included on each plate.

[4] = biological target: T4, CEACAM1 on transfected HeLa cells (Homo sapiens (Human), UniProt P13688 35-526); assay: flow cytometry, transfected HeLa
T4 construct: also called C1
T4 sequence: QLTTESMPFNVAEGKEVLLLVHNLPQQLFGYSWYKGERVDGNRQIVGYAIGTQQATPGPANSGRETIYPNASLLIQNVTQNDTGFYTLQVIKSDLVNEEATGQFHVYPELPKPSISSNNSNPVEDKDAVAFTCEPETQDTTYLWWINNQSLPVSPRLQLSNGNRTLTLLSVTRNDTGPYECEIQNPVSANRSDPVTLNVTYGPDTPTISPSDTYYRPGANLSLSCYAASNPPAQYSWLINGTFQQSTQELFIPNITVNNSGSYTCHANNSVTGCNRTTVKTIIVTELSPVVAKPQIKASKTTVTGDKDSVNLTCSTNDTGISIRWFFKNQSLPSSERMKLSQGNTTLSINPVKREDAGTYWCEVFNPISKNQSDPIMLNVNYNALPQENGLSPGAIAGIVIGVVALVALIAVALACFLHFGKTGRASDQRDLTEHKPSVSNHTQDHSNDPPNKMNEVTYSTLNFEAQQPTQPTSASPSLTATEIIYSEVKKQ
Protocol: (§1) Binding selectivity of the selected antibody variants was assessed by flow cytometry using HeLa cells transfected with vectors expressing CEACAM1, CEACAM5, and CEACAM6, respectively. The resulting cells were used for flow cytometry experiments and were cultured at 37° C., 5.0% CO₂ in Dulbecco's modified Eagle's medium supplemented with 10% fetal bovine serum, penicillin (100 U/ml) and dihydrostreptomycin ([…]). Cell lines were stained with the indicated antibodies followed by fluorochrome-conjugated monoclonal antibody specific for the indicated antibody isotypes such as human IgG4 or mouse IgG1 together with viable dye (DAPI). Data were acquired with a Cytoflex flow cytometer ([…]) and analyzed with FlowJo software (TreeStar, V7.6.5 for Windows).

[5] = biological target: T5, CEACAM6 on transfected HeLa cells (UniProt P40199 35-320, limits assumed); assay: flow cytometry, transfected HeLa
T5 construct: whole, on cells; also called C6
T5 sequence (looked up): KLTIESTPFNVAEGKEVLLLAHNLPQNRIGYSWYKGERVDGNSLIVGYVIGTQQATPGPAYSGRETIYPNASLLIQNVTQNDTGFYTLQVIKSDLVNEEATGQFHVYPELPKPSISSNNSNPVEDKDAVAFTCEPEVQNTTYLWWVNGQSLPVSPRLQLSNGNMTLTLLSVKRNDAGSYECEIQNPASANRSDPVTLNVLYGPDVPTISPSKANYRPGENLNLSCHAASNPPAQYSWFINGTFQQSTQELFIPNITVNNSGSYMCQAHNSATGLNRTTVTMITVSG
Protocol: as §1

[6] = biological target: T1, CEACAM1 (Sino Biological); assay: SPR single-cycle
In short: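 Humanized affinity-matured IgGs from crude supernatants captured on Protein A to ~100 RU, with CEACAM1 analyte injected at 25–100 nM (three-point, two-fold) in HBS-P+ without regeneration. 200 s association per injection, 300 s single dissociation; reference-channel and blank subtracted.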

[7] = biological target: T6, CEACAM6 (Sino Biological) (human, UniProt P40199 35-320); assay: binding ELISA on plate-coated CEACAM (0.5 µg/mL); antibody at 1.67, 0.062 and 0.0069 µg/mL; signal as % of parent IgG on CEACAM1 at 1.67 µg/mL on the same plate
T6 construct: also called hCEACAM6
T6 sequence (looked up): T5 sequence (looked up)

[8] = biological target: T7, CEACAM3 (Sino Biological) (human, UniProt P40198 35-155, limits assumed); assay: as above
T7 construct: also called hCEACAM3
T7 sequence (looked up): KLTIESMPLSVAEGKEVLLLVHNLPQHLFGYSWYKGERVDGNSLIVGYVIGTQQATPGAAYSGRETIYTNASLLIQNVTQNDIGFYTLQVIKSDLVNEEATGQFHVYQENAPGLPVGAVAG

[9] = biological target: T1, CEACAM1 (Sino Biological); assay: SPR multi-cycle, IgG on Protein A
Protocol: Multi-cycle kinetics analysis was performed on the twelve lead antibodies using a Biacore T200 instrument running Biacore T200 Evaluation Software V3.0.1 (Uppsala, Sweden) to establish an accurate affinity for CEACAM1. The purified antibodies were diluted to a concentration of […] in HBS-P+. At the start of each cycle, each antibody was captured on the Protein A surface to give an RL of ˜100 RU. Following capture, the surface was allowed to stabilize. Kinetic data was obtained using a flow rate of […] to minimize any potential mass transfer effects. For the kinetics analysis, CEACAM1 was used. Multiple repeats of the blank ([…]) and a repeat of a single concentration of the analyte were programmed into the kinetic run in order to check the stability of both the surface and analyte over the kinetic cycles. For kinetic analysis, a two-fold dilution range was selected from 200 to 3.125 nM CEACAM1. The association phase of CEACAM1 was monitored for 275 seconds and the dissociation phase was measured for 250 seconds. Regeneration of the Protein A surface was conducted using two injections of 10 mM glycine-HCL pH 1.5 at the end of each cycle.
The signal from the reference channel Fc1 was subtracted from that of Fc2, Fc3 and Fc4 to correct for differences in non-specific binding to a reference surface, and a global Rmax parameter was used in the 1-to-1 binding model. The relative KD was calculated by dividing the KD of the RSB02 Parent by that of the humanized and affinity matured variants on the same chip.

B1: Parent (scFv)
scFv: EVQLLESGGGLVQPGGSLRLSCAASGFSFSDYYLYWVRQAPGKGLEWVATISVGGGQTSYADSVKGRFTISRDNSKNTLYLQMNSLRAEDTAMYYCTRGLYYGPAWFAYWGQGTLVTVSSGGGGSGGGGSGGGGSDIVMTQSPDSLAVSLGERATINCKSSQSLLNSANQKNYLAWYQQKPGQPPKLLIYFASTRESGVPDRFSGSGSGTDFTLTISSLQAEDVAVYYCQQHYSTPWTFGGGTKVEIK
notes: also called parent humanized scFv; parental RSB02 scFv; not shown: C-terminal Flag tag from phagemid pANT65
B1: binds [1].

B2: VH1/Vκ4 (antibody, IgG4, V domains shown)
VH: EVQLLESGGGLVQPGGSLRLSCAASGFSFSDYYLYWVRQAPGKGLEWVATISVGGGNTSYPDSVKGRFTISRDNSKNTLYLQMNSLRAEDTAMYYCTRGLYYGPAWFAYWGQGTLVTVSS
VL: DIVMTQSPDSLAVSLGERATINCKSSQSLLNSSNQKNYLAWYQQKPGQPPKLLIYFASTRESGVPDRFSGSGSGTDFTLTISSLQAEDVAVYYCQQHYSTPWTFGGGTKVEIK
notes: IgG4 (S241P), kappa; also called VH1/VK4
With B2 the Kd [2] was 143 nM, the “relative KD to chimeric parental antibody” value [2] was 3.3 ratio and the “average relative IC50 (normalized to chimeric antibody)” value [3] was 4.4 ratio. The relative fluorescence intensity [4] was 81.1 and the relative fluorescence intensity [5] was 1.19.

B3: He14/L1 (antibody, IgG4, V domains shown)
VH: B2 VH with N57Q, P61A, A105S, F107V
VL: DIVMTQSPDSLAVSLGERATINCKSSQSLLNSANQKNYLAWYQQKPGQPPKLLIYFASTRESGVPDRFSGSGSGTDFTLTISSLQAEDVAVYYCQSHYPFYYTFGGGTKVEIK
notes: IgG4 S241P, kappa; also called He14 / 1
For B3, the Kd [6] was 69 nM, the “fold better than Parent (KD)” value [6] was 2.3 fold and the binding result [7] was “no binding (tested: 1.67 µg/mL)”. The binding result [8] was “no binding (tested: 1.67 µg/mL)”, the Kd [9] was 67.3 nM and the koff [9] was 0.00724 s⁻¹. For the same binder, the kon [9] was 108000 M⁻¹ s⁻¹ and the “relative KD to Parent” value [9] was 1.83 ratio.
